In general, Kd refers to the concentration at which binding is half-saturated. What is called stoichiometry N is a count of units in the complex or per binding partner.

No end group written: not given here.

The values below come from publication PMC7139218, “Structural Basis for Rab8a Recruitment of RILPL2 via LRRK2 Phosphorylation of Switch 2” (Structure(London, England:1993), 2020).

For one series, the target named is RILPL2 (Mus musculus) (UniProt Q99LE1). Particulars: cited from earlier work.
In series [1] the target is T72 phosphorylated Rab8a(GTP), residues 1-181, Q67L (UniProt P61006). Put plainly: ITC; His6-RILPL2 129-165 (400-600 μM) injected into Rab8a or pRab8a 1-181 (40-60 μM); 10 mM Tris-HCl, 300 mM NaCl, 5 mM MgCl2, 20 mM imidazole, 1 mM DTT; triplicate.
Series [2] concerns the molecule itself. Nature of the series: crystal structure; pRab8(Q67L):His6-RL2 complex, 1:1 molar ratio of protein:peptide, 12 mg/mL; 100 mM HEPES pH 7, 10% PEG4,000, 10% 2-propanol; 1.8 Å.
The target of series [3] is T1, His6-tagged RILPL2 (full length, 1-211) (Homo sapiens (Human), UniProt Q969X0).
T1 chain: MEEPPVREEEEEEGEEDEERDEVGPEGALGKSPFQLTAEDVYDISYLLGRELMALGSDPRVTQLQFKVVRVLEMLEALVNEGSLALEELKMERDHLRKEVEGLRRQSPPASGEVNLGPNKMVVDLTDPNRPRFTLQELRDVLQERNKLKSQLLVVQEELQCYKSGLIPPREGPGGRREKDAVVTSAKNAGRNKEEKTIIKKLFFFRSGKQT
Put plainly: Ni-agarose pull-down (SDS-PAGE, Coomassie).

Series [4] concerns the molecule itself. Put plainly: SEC-MALS; static light scattering coupled to gel filtration, Superdex 200 (10/300); full-length RILPL2 with uncleaved polyhistidine tag, 500 μL at 1 mg/mL.

RILPL2 (Mus musculus), sequence (Q99LE1 whole entry, the tested form may be a part): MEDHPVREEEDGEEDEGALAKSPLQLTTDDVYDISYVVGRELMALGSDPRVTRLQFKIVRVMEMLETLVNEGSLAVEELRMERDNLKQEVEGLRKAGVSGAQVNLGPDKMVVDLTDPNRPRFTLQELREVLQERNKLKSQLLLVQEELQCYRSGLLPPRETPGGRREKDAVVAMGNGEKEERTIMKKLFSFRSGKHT
T72 phosphorylated Rab8a(GTP), residues 1-181, Q67L, sequence (P61006 1-181 Q67L): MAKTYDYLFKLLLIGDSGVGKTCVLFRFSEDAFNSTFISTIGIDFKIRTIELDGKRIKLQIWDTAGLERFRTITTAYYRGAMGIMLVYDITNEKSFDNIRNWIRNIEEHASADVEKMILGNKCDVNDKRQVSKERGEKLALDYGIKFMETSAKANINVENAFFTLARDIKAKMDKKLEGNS

As to Myosin Va (from UniProt Q99104), in the series with RILPL2 (Mus musculus), the Kd was 300 nM.

B1: His6-RILPL2 residues 129-165 (phospho-Rab binding domain, minimal RH2 motif) (peptide, UniProt Q969X0 129-165, looked up)
chain: His6-NRPRFTLQELRDVLQERNKLKSQLLVVQEELQCYKSG
notes: Parallel α-helical dimer in the crystal; also called His6-RL2; source: synthetic peptide (Genscript); not shown: His6, N-terminal, kept
For the molecule B1, in series [1], the dissociation constant (Kd) was 3300 nM. Besides, the “stoichiometry N” value in series [2] amounted to 2.

B2: globular tail domain (GTD) of myosin Va (1462-1853) (protein)
chain: VNIPRKEKDFQGMLEYKREDEQKLVKNLILELKPRGVAVNLIPGLPAYILFMCVRHADYLNDDQKVRSLLTSTINSIKKVLKKRGDDFETVSFWLSNTCRFLHCLKQYSGEEGFMKHNTSRQNEHCLTNFDLAEYRQVLSDLAIQIYQQLVRVLENILQPMIVSGMLEHETIQGVSGVKPTGLRKRTSSIADEGTYTLDSILRQLNSFHSVMCQHGMDPELIKQVVKQMFYIVGAITLNNLLLRKDMCSWSKGMQIRYNVSQLEEWLRDKNLMNSGAKETLEPLIQAAQLLQVKKKTDDDAEAICSMCNALTTAQIVKVLNLYTPVNEFEERVSVSFIRTIQMRLRDRKDSPQLLMDAKHIFPVTFPFNPSSLALETIQIPASLGLGFIARV
On to B2, for which the binding result in series [3] is listed as “binds”.

B3: His6-tagged RILPL2 (full length, 1-211) (natural protein, human, UniProt Q969X0 1-211, looked up)
chain: MEEPPVREEEEEEGEEDEERDEVGPEGALGKSPFQLTAEDVYDISYLLGRELMALGSDPRVTQLQFKVVRVLEMLEALVNEGSLALEELKMERDHLRKEVEGLRRQSPPASGEVNLGPNKMVVDLTDPNRPRFTLQELRDVLQERNKLKSQLLVVQEELQCYKSGLIPPREGPGGRREKDAVVTSAKNAGRNKEEKTIIKKLFFFRSGKQT
notes: RILPL2, human, full length (1-211), cDNA in pET15b; Dimer in solution by static light scattering coupled to gel filtration; also called full-length RILPL2; source: E. coli, purified (Ni-agarose, gel filtration), polyhistidine tag not removed
In the case of B3, in series [4], the “stoichiometry N” value is 2.
